Measurements: patent US20220112276A1 (Janssen / Centocor, published 2022)
Positions count from the first letter of the chain named. Each block holds one binder with its values, some of them ahead of it.

Key:
[1] = target: T1, cynomolgus monkey pIgR extracellular domain (cynomolgus monkey, UniProt A0A2K5WMU9 19-638); assay: SPR, VHH captured by anti-Fc, ECD analyte
T1 construct: extracellular domain
How it was run: (§1)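 Single-cycle kinetics: ECD analyte from 30 nM, 3-fold series, low to high, with 30 min off-rate monitoring, over VHH captured at 0.5 ug/ml (~200-300 RU). HBSP plus 100 ug/ml BSA at 30 μL/min. Reference cell and buffer blank subtracted; global 1:1 Langmuir fit gave kon, koff, KD.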

[2] = target: T2, rat pIgR extracellular domain (rat, UniProt P15083 19-643); assay: SPR, VHH captured by anti-Fc, ECD analyte
T2 construct: extracellular domain
T2 sequence (looked up): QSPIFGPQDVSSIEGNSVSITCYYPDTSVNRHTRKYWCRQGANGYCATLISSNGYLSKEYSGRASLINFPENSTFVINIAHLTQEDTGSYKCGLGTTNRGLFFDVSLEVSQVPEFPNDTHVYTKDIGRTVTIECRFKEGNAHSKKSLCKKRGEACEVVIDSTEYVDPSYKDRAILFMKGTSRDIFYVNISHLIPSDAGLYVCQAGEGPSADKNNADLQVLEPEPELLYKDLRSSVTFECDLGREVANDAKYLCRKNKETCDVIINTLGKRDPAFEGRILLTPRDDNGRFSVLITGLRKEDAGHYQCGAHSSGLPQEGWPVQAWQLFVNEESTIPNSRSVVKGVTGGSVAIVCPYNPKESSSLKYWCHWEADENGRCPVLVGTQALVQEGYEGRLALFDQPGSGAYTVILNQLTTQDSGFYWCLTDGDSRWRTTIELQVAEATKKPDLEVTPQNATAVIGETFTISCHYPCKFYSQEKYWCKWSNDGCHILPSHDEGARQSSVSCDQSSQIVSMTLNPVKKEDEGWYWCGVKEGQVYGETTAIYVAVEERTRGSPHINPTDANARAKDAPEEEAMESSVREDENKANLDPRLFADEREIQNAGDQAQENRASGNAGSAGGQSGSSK
How it was run: as §1

[3] = target: T3, mouse pIgR extracellular domain (ECD) (mouse, UniProt O70570 19-645); assay: SPR, VHH captured by anti-Fc, ECD analyte
T3 construct: Bought from R&D Systems (Cat 2800-PG-050); also called mpIgR ECD
T3 sequence: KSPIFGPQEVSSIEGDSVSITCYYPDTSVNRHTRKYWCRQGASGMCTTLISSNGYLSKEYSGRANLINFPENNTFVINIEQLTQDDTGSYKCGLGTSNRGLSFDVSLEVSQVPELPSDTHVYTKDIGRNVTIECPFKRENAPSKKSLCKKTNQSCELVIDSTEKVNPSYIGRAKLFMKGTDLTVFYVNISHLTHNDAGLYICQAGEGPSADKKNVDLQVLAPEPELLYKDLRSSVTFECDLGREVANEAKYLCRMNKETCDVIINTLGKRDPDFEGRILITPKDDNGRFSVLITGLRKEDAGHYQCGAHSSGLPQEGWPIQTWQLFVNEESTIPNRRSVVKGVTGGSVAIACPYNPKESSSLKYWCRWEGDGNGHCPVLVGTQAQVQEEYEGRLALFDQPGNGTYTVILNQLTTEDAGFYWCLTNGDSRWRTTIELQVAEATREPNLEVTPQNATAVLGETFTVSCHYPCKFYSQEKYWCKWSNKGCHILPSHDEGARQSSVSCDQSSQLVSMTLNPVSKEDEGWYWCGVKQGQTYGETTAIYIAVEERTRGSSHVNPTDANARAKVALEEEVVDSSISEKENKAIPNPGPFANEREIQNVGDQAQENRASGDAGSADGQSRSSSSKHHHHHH
How it was run: as §1

[4] = target: T4, human pIgR extracellular domain (ECD) (human, UniProt P01833 19-638); assay: SPR, VHH captured by anti-Fc, ECD analyte
T4 construct: Bought from R&D Systems (Cat 2717-PG-050); also called hpIgR ECD
T4 sequence (P01833 other isoform, or with tags, fused parts or gaps): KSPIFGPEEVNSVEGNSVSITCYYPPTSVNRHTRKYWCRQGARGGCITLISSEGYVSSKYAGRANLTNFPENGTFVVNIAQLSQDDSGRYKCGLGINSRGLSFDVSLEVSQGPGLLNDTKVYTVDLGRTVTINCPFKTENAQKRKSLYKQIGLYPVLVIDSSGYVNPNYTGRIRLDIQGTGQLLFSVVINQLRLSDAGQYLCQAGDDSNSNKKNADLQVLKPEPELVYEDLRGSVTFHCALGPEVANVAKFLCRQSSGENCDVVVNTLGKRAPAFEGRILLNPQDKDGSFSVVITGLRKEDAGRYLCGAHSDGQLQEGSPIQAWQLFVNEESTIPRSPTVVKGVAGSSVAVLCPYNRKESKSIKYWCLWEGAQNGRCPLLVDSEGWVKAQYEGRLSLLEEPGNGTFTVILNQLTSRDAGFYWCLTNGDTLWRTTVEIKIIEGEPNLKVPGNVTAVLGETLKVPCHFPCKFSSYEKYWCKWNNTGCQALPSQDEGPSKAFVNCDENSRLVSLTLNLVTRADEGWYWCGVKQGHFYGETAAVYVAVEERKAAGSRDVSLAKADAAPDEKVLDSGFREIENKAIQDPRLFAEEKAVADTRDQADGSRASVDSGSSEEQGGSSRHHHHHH
How it was run: as §1

[5] = target: T4, human pIgR extracellular domain (ECD); assay: SPR

T1 sequence (A0A2K5WMU9 entry or part of it): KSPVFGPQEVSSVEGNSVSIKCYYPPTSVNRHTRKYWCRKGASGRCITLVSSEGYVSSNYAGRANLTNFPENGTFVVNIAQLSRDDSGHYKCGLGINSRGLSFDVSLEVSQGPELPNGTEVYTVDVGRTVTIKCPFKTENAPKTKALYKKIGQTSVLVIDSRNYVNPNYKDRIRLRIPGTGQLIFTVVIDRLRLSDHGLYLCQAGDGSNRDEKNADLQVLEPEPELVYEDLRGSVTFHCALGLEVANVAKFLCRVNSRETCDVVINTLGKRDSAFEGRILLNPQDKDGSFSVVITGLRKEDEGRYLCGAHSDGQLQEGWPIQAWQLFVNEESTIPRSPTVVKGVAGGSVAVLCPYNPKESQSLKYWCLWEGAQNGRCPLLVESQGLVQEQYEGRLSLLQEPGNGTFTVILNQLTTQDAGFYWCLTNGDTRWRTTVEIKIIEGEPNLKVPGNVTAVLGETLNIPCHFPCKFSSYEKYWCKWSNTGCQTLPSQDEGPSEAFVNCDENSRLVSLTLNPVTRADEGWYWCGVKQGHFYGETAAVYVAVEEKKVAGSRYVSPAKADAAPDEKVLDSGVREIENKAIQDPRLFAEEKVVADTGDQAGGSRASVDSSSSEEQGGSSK

Kd [1]: 4.93 nM
Kd [2]: 1.34 nM
Kd [3]: 14 nM
Kd [4]: 1.31 nM
B1: 01A01R3 VHH Mono-Fc (Fc fusion)
chain: EVQLVESGGGLVQAGGSLRLSCAASGSGRTFTSYTMGWFRQAPGKEREFVSALTWADDSTYYKYYADSMKGRLTISRDNAKNTVYLQMNSLKPEDTAVYYCVATGRGLTYDPRDRRKYDYWGQGTQVTVSSSPAPELLGGPSVFLFPPKPKDTLMISRTPEVTCVVVDVSHEDPEVKFNWYVDGVEVHNAKTKPREEQYNSTYRVVSVLTVLHQDWLNGKEYKCKVSNKALPAPIEKTISKAKGQPREPQVYTKPPSREEMTKNQVSLSCLVKGFYPSDIAVEWESNGQPENNYKTTVPVLDSDGSFRLASYLTVDKSRWQQGNVFSCSVMHEALHNHYTQKSLSLSPGK

Kd [1]: 36.2 nM
Kd [2]: 16.1 nM
Kd [3]: 17.3 nM
Kd [4]: 34.2 nM
B2: 01E05R2 VHH Mono-Fc (Fc fusion)
chain: QVQLVESGGGLVQAGGSLRLSCAASGRAFSSGRMGWFRQAPGKEREFVAAISWSGHTTYKYYADSVKGRFTISRENAKNTVSLQMNSLKPEDTAVYYCAARQSLVAGGDPRGQSEYDYWGQGTLVTVSSSPAPELLGGPSVFLFPPKPKDTLMISRTPEVTCVVVDVSHEDPEVKFNWYVDGVEVHNAKTKPREEQYNSTYRVVSVLTVLHQDWLNGKEYKCKVSNKALPAPIEKTISKAKGQPREPQVYTKPPSREEMTKNQVSLSCLVKGFYPSDIAVEWESNGQPENNYKTTVPVLDSDGSFRLASYLTVDKSRWQQGNVFSCSVMHEALHNHYTQKSLSLSPGK

Kd [1]: 2.92 nM
Kd [2]: 2.4 nM
Kd [3]: 3.45 nM
Kd [4]: 5.95 nM
B4: 01H10R2 VHH Mono-Fc (Fc fusion)
chain: QVQLVESGGGLVQPGGSLRLSCAASGRTSSISTMGWFRQAPGKEREFVTAIRWSGSSSYKYYADSVKGRFTISRDNARNTVYLQMNSLKPEDTAVYYCAAQMSLWRDPREIDYDYWGQGTLVTVSSSPAPELLGGPSVFLFPPKPKDTLMISRTPEVTCVVVDVSHEDPEVKFNWYVDGVEVHNAKTKPREEQYNSTYRVVSVLTVLHQDWLNGKEYKCKVSNKALPAPIEKTISKAKGQPREPQVYTKPPSREEMTKNQVSLSCLVKGFYPSDIAVEWESNGQPENNYKTTVPVLDSDGSFRLASYLTVDKSRWQQGNVFSCSVMHEALHNHYTQKSLSLSPGK

Kd [1]: 37.8 nM
Kd [2]: 126 nM
Kd [3]: 126 nM
Kd [4]: 0.391 nM
B5: 03D02R3 VHH Mono-Fc (Fc fusion)
chain: EVQLVESGGGLAQAGGSLRLSCTASGTISKIDVMAWYRQTPGNERELVARIFSNDVTHYVDSAKGRFTLSRAQDKNTVDLQMNSLEPDDAAVYYCNAQIWSDMRGRMDTYWGQGTLVTVSSSPAPELLGGPSVFLFPPKPKDTLMISRTPEVTCVVVDVSHEDPEVKFNWYVDGVEVHNAKTKPREEQYNSTYRVVSVLTVLHQDWLNGKEYKCKVSNKALPAPIEKTISKAKGQPREPQVYTKPPSREEMTKNQVSLSCLVKGFYPSDIAVEWESNGQPENNYKTTVPVLDSDGSFRLASYLTVDKSRWQQGNVFSCSVMHEALHNHYTQKSLSLSPGK

Kd [1]: 22.2 nM
Kd [2]: 15.2 nM
Kd [3]: 25.6 nM
Kd [4]: 13.3 nM
B8: 01C03R3 VHH Mono-Fc (Fc fusion)
chain: QVQLVESGGGLVQAGGSLRLSCAASGRTFSSYAMGWFRQAPGKEREFVAAIHWNGASTYRYSADSVKGRFTISRDNAKNTVYLQMNSLKPEDTAAYYCAASPPPTVGDVRDPANYDSWGQGTLVTVSSSPAPELLGGPSVFLFPPKPKDTLMISRTPEVTCVVVDVSHEDPEVKFNWYVDGVEVHNAKTKPREEQYNSTYRVVSVLTVLHQDWLNGKEYKCKVSNKALPAPIEKTISKAKGQPREPQVYTKPPSREEMTKNQVSLSCLVKGFYPSDIAVEWESNGQPENNYKTTVPVLDSDGSFRLASYLTVDKSRWQQGNVFSCSVMHEALHNHYTQKSLSLSPGK

The remaining lines, values behind:

B3: 01B07R2L VHH Mono-Fc (Fc fusion)
chain: EVQLVESGGGLVQAGGSLRLSCAASGRTFSSDAVGWFRQAPGKEREFVAHIHWSGDFTTYYYYGDFVKGRFTISRGTAKNTVYLQMNSLKPEDTAVYYCAAPKGAIGDPRSTREYDYWGQGTLVTVSSSPAPELLGGPSVFLFPPKPKDTLMISRTPEVTCVVVDVSHEDPEVKFNWYVDGVEVHNAKTKPREEQYNSTYRVVSVLTVLHQDWLNGKEYKCKVSNKALPAPIEKTISKAKGQPREPQVYTKPPSREEMTKNQVSLSCLVKGFYPSDIAVEWESNGQPENNYKTTVPVLDSDGSFRLASYLTVDKSRWQQGNVFSCSVMHEALHNHYTQKSLSLSPGK
Kd [1]: 2.11 nM
Kd [2]: 2.33 nM
Kd [3]: 4.46 nM
Kd [4]: 11.4 nM

B6: 01A02R3 VHH Mono-Fc (Fc fusion)
chain: EVQLVESGGGLVQSGGSLRLSCAASGRTFDQFTVGWFRQAPGKEREFVTAIRWSGSTTYRYYADSVKGRFTISRDNARNTVDLQMNSLKPEDSAVYYCAGQMSQWSDPRGDDYDSWGQGTLVTVSSSPAPELLGGPSVFLFPPKPKDTLMISRTPEVTCVVVDVSHEDPEVKFNWYVDGVEVHNAKTKPREEQYNSTYRVVSVLTVLHQDWLNGKEYKCKVSNKALPAPIEKTISKAKGQPREPQVYTKPPSREEMTKNQVSLSCLVKGFYPSDIAVEWESNGQPENNYKTTVPVLDSDGSFRLASYLTVDKSRWQQGNVFSCSVMHEALHNHYTQKSLSLSPGK
Kd [1]: 4.97 nM
Kd [2]: 2.78 nM
Kd [3]: 7.18 nM
Kd [4]: 17.9 nM

B7: 01A07R3 VHH Mono-Fc (Fc fusion)
chain: EVQLVESGGGLVQTGESLRLSCAASGRAFSDLRMAWFRQVPGKEREFVAAVEWRGSSRYYYSADSVKGRFTISRTSPKGETYLQMNGLKPEDTAVYYCAAVSPVVGDPRNSDTYNYWGQGTQVTVSSSPAPELLGGPSVFLFPPKPKDTLMISRTPEVTCVVVDVSHEDPEVKFNWYVDGVEVHNAKTKPREEQYNSTYRVVSVLTVLHQDWLNGKEYKCKVSNKALPAPIEKTISKAKGQPREPQVYTKPPSREEMTKNQVSLSCLVKGFYPSDIAVEWESNGQPENNYKTTVPVLDSDGSFRLASYLTVDKSRWQQGNVFSCSVMHEALHNHYTQKSLSLSPGK
Kd [1]: 10.7 nM
Kd [2]: 1.24 nM
Kd [3]: 1.41 nM
Kd [4]: 0.2 nM

B9: 01C01R2L VHH Mono-Fc (Fc fusion)
chain: QVQLVESGGGLVQAGGSLRLSCAASGRTLRSYIVGWFRQAPGKEREFVAAVTWSDGRRVTADPVKGRFTISRDNAKNTVYLQMDSLKPEDAAVYYCAVSRGGAYEYSRAYEYWGQGTLVTVSSSPAPELLGGPSVFLFPPKPKDTLMISRTPEVTCVVVDVSHEDPEVKFNWYVDGVEVHNAKTKPREEQYNSTYRVVSVLTVLHQDWLNGKEYKCKVSNKALPAPIEKTISKAKGQPREPQVYTKPPSREEMTKNQVSLSCLVKGFYPSDIAVEWESNGQPENNYKTTVPVLDSDGSFRLASYLTVDKSRWQQGNVFSCSVMHEALHNHYTQKSLSLSPGK
Kd [3]: 6.55 nM
binding result [5]: no binding (tested: 30 nM)

B10: 01C03R2L VHH Mono-Fc (Fc fusion)
chain: B9 chain with Q1E, R100H, E105V, Y106E, L118Q
Kd [3]: 3.67 nM
binding result [5]: no binding (tested: 30 nM)

B11: 01H10R3 VHH Mono-Fc (Fc fusion)
chain: QVQLVESGGGLVQAGGSLRLSCAASGRAFSQYTMGWFRQAPGKEREFVTAIRWSGGSIYKYYADSVKGRFTISGDNARNTVDLQMNSLKPEDTAVYYCAARMSPWGDPRGNEYDYWGQGTLVTVSSSPAPELLGGPSVFLFPPKPKDTLMISRTPEVTCVVVDVSHEDPEVKFNWYVDGVEVHNAKTKPREEQYNSTYRVVSVLTVLHQDWLNGKEYKCKVSNKALPAPIEKTISKAKGQPREPQVYTKPPSREEMTKNQVSLSCLVKGFYPSDIAVEWESNGQPENNYKTTVPVLDSDGSFRLASYLTVDKSRWQQGNVFSCSVMHEALHNHYTQKSLSLSPGK
Kd [1]: 94.6 nM
Kd [2]: 11.4 nM
Kd [3]: 47.1 nM
Kd [4]: 34 nM
